Measured values taken from patent US20190336574A1 (TRUSTEES OF PRINCETON UNIVERSITY, published 2019).

Key:
[1] = target: T1, HA-SND1, full-length human, wild type (human, UniProt Q7KZF4 1-910); assay: cell-based or functional assay
T1 sequence: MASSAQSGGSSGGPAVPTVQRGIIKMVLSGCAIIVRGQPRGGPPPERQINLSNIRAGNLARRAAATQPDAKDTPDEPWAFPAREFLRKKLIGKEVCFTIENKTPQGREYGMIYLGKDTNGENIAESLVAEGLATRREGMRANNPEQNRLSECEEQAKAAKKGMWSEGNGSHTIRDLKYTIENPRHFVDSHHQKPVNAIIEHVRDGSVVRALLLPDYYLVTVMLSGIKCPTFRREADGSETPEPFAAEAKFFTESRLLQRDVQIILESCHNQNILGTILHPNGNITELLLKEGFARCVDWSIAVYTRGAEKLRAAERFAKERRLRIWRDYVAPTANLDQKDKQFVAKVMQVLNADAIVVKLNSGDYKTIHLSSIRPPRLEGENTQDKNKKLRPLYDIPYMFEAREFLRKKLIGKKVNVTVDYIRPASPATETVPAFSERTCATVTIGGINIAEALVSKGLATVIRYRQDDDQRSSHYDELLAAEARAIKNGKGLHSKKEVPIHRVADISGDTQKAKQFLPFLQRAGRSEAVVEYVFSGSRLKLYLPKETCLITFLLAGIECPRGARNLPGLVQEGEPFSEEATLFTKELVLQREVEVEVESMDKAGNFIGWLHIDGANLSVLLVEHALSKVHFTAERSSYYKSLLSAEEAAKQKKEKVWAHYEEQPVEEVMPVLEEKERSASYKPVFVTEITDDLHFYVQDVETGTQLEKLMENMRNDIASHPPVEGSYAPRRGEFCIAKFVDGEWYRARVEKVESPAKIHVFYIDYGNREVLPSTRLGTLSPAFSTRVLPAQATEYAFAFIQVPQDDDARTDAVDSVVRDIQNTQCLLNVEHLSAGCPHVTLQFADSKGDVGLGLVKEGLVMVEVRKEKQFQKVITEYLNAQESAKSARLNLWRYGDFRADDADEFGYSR

[2] = target: T2, HA-SND1 Δ39-43, full-length human (human, UniProt Q7KZF4 1-910); assay: co-IP (anti-Myc) from HEK293T lysates, western blot
T2 construct: also called 439-43
T2 sequence: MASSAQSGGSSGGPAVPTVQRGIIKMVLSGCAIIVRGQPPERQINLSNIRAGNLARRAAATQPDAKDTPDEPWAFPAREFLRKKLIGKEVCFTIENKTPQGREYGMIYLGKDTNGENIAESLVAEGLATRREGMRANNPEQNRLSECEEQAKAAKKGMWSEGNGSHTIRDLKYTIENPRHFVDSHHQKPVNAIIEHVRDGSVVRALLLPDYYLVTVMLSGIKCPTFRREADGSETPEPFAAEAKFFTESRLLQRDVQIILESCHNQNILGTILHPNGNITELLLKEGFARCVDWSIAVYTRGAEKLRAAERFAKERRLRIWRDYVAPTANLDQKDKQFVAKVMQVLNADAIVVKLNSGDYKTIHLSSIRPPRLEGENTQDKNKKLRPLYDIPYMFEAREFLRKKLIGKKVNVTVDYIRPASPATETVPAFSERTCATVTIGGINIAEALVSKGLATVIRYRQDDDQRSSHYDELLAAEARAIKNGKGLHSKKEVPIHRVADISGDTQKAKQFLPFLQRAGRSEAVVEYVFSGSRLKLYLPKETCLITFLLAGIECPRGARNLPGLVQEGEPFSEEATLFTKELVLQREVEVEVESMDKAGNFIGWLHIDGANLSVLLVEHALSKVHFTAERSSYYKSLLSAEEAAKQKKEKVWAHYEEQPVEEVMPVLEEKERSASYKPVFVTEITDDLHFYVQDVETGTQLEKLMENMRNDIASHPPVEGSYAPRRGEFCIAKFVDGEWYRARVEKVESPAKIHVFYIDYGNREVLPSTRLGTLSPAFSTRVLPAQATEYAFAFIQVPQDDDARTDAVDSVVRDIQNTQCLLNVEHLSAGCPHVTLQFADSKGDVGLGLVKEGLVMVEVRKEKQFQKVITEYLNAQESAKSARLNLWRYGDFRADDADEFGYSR

[3] = target: human AGO2 (ectopically expressed in HEK293T cells) (human, UniProt Q9UKV8 1-859); assay: anti-Myc co-IP from HEK293T lysate (HA-SND1 and FLAG-AGO2 co-expressed), western blot
Description: Two putative nuclear localization signals are residues 432-451 for NLS2 and residues 561-580 for NLS3. […] (FIG. 7B) Pulldown of His6-SND1ΔC by GST-tagged MTDH fragments with indicated boundaries. The bound proteins were examined by SDS-PAGE and visualized by Coomassie blue staining. […] For (FIG. 7B) and (FIG. 7C), 1/10 of the His6-SND1ΔC input was shown, and GST alone was used as a negative control. Representative results of 3 independent experiments are shown. (FIG. 7D, FIG. 7E) Lysates from HEK293T cells expressing the indicated ectopic human SND1, AGO2 or MTDH were immunoprecipitated with anti-Myc and immunoblotted with the indicated antibodies.
Immunoprecipitation and western blot For immunoprecipitation (IP) experiments, cultured cells were washed in cold PBS and lysed in lysis buffer (20 mM Tris pH 7.4, 0.15 M NaCl, 1 mM EDTA, 1 mM EGTA, 1% Tx-100, 0.0025 M Na2P2O7, 1 mM α-glycerolphosphate, 1 mM Na3VO4, and 1 mM NaF) with an EDTA-free protease inhibitor mixture (Roche Applied Science) and PMSF. Cell lysates were then incubated on ice for 10 min, centrifuged, and precleared by incubating with protein A/G beads (Santa Cruz Biotechnology) for 1 h at 4° C. For IP bead preparation, 30 μl of protein A/G beads were incubated with 5 μg of antibodies for 2 h at 4° C. […]

Sequence of human AGO2 (ectopically expressed in HEK293T cells) (Q9UKV8 whole entry, the tested form may be a part): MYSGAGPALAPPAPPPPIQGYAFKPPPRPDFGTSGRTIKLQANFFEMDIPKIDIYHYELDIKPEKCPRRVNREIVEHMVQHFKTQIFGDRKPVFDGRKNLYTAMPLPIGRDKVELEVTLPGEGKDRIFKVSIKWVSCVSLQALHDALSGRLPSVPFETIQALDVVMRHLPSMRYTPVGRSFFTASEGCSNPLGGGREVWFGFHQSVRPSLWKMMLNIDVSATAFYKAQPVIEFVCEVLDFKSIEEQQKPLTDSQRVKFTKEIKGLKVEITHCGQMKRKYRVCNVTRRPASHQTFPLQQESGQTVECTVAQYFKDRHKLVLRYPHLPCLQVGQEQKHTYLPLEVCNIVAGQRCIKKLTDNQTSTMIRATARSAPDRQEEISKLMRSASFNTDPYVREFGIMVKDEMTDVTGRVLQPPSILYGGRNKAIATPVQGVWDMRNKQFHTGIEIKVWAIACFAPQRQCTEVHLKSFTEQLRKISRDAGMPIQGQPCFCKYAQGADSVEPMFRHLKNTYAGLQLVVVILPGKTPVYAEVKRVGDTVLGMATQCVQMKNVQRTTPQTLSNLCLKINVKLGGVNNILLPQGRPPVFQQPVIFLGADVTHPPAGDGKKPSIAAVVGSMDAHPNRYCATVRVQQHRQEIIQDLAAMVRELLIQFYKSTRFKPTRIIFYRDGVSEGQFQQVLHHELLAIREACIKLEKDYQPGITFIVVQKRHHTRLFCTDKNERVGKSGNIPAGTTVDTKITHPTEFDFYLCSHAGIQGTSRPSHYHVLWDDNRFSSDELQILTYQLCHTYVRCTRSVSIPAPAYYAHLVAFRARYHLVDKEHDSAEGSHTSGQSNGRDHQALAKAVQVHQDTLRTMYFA

B1: Myc-MTDH, full-length human, wild type (other)
chain: MAARSWQDELAQQAEEGSARLREMLSVGLGFLRTELGLDLGLEPKRYPGWVILVGTGALGLLLLFLLGYGWAAACAGSRKKRRSPPRKREEAAAVPAAAPDDLALLKNLRSEEQKKKNRKKLSEKPKPNGRTVEVAEGEAVRTPQSVTAKQPPEIDKKNEKSKKNKKKSKSDAKAVQNSSRHDGKEVDEGAWETKISHREKRQQRKRDKVLTDSGSLDSTIPGIENTITVTTEQLTTASFPVGSKKNKGDSHLNVQVSNFKSGKGDSTLQVSSGLNENLTVNGGGWNEKSVKLSSQISAGEEKWNSVSPASAGKRKAEPSAWSQDTGDANTNGKDWGRSWSDRSIFSGIGSTAEPVSQSTTSDYQWDVSRNQPYIDDEWSGLNGLSSADPNSDWNAPAEEWGNWVDEERASLLKSQEPIPDDQKVSDDDKEKGEGALPTGKSKKKKKKKKKQGEDNSTAQDTEELEKEIREDLPVNTSKTRPKQEKAFSLKTISTSDPAEVLVKNSQPIKTLPPATSTEPSVILSKSDSDKSSSQVPPILQETDKSKSNTKQNSVPPSQTKSETSWESPKQIKKKKKARRET
notes: Full-length, Myc-tagged; Expressed in HEK293T cells, tested in lysate; also called Myc-tagged MTDH; WT Myc-MTDH
With B1 the “half-life of HA-SND1 in HEK293T cells at 45° C (heat shock)” value [1] was over 3 h, the binding result [2] was “no binding” and the binding result [3] was “binds”.
